In the Human Domainome abundance scans (Beltran et al. 2025):
± gives the uncertainty stated by the source.

B1: Ankyrin-1, residues 1405 to 1484; numbered along this chain, P16157 (parent)
chain: MKMAVISEHLGLSWAELARELQFSVEDINRIRVENPNSLLEQSVALLNLWVIREGQNANMENLYTALQSIDRGEIVNMLE

Variants of: B1
Assay: abundance fitness (aPCA) (normalised: wild type 0, dead -1); higher = more abundant; growth selection in yeast, the domain comes from the species named
Settings: Homo sapiens

Row | Variant | abundance fitness
1 | S24V | -0.722 ± 0.097
2 | S24H | -0.429 ± 0.18
3 | S24A | -0.213 ± 0.056
4 | S24P | -0.209 ± 0.056
5 | L49M | 0.061 ± 0.047
6 | L49N | -0.256 ± 0.12
7 | L49V | -0.314 ± 0.065
8 | A66N | -0.562 ± 0.19
9 | A66H | -0.151 ± 0.087
10 | A66W | -0.99 ± 0.32
11 | A66C | 0.016 ± 0.07
12 | A66Y | -0.494 ± 0.11
13 | A66V | -0.749 ± 0.097
14 | H9V | -0.712 ± 0.13
15 | H9C | 0.011 ± 0.1
16 | R19H | 0.064 ± 0.18
17 | R19D | -0.296 ± 0.11
18 | R19M | 0.003 ± 0.1
19 | R19C | -0.17 ± 0.077
20 | L47Y | -0.997 ± 0.34
21 | L47D | -0.743 ± 0.23
22 | L47H | -0.503 ± 0.33
23 | Q42V | -0.813 ± 0.1
24 | Q42E | -0.926 ± 0.18

Row | Variant | abundance fitness
25 | Q42S | -0.383 ± 0.079
26 | Q42T | -0.723 ± 0.2
27 | A4D | 0.159 ± 0.12
28 | A4V | -0.35 ± 0.074
29 | A4M | -0.434 ± 0.19
30 | A4P | -0.612 ± 0.19
31 | A4E | -0.142 ± 0.18
32 | N35K | -0.064 ± 0.16
33 | N35P | -0.866 ± 0.23
34 | N35F | -0.219 ± 0.2
35 | N35G | -0.858 ± 0.21
36 | N35C | -0.355 ± 0.22
37 | M60T | -0.286 ± 0.19
38 | M60V | 0.117 ± 0.12
39 | M60W | 0.055 ± 0.18
40 | M60G | -0.813 ± 0.2
41 | M60K | -0.534 ± 0.35
42 | M60C | -0.564 ± 0.23
43 | N59Q | -0.031 ± 0.11
44 | N59K | -0.02 ± 0.19
45 | N59W | -0.371 ± 0.056
46 | N59I | -0.314 ± 0.2
47 | N59A | -0.047 ± 0.078
48 | E8T | -0.162 ± 0.08

Row | Variant | abundance fitness
49 | E8L | -0.383 ± 0.067
50 | N57V | -0.068 ± 0.095
51 | T65H | -0.05 ± 0.1
52 | T65L | -0.072 ± 0.049
53 | T65Y | -0.132 ± 0.11
54 | T65V | -0.153 ± 0.053
55 | T65D | 0.009 ± 0.065
56 | T65R | -0.04 ± 0.044
57 | N37A | -0.025 ± 0.093
58 | N37Y | -0.322 ± 0.2
59 | N37G | -0.166 ± 0.093
60 | N37Q | -0.444 ± 0.35
61 | N37V | -0.277 ± 0.097
62 | N37W | -0.36 ± 0.18
63 | L79M | 0.039 ± 0.082
64 | L79F | -0.331 ± 0.14
65 | L79H | -0.199 ± 0.15
66 | L79T | -0.202 ± 0.096
67 | L79R | -0.528 ± 0.082
68 | L21I | -0.425 ± 0.38
69 | L21A | -1.02 ± 0.28
70 | L21F | -0.69 ± 0.29
71 | L21G | -0.965 ± 0.17
72 | L21M | 0.048 ± 0.12

Row | Variant | abundance fitness
73 | Q68S | -0.199 ± 0.062
74 | Q68D | -0.109 ± 0.11
75 | Q68I | -0.097 ± 0.12
76 | Q68Y | -0.202 ± 0.14
77 | K2L | -0.258 ± 0.037
78 | K2I | -0.003 ± 0.096
79 | K2C | -0.284 ± 0.14
80 | K2H | -0.271 ± 0.17
81 | A15I | 0.132 ± 0.072
82 | A15Q | -0.171 ± 0.13
83 | A15V | 0.066 ± 0.047
84 | A15G | -0.108 ± 0.037
85 | A15P | -0.025 ± 0.1
86 | L63D | -0.763 ± 0.38
87 | L63S | -0.637 ± 0.18
88 | L63R | -0.95 ± 0.18
89 | L63E | -0.646 ± 0.24
90 | L63F | -0.632 ± 0.3
91 | S43N | -0.099 ± 0.27
92 | S43V | -0.757 ± 0.11
93 | S43R | -0.89 ± 0.14
94 | S43C | -0.552 ± 0.11
95 | N77H | -0.175 ± 0.22
96 | V25P | 0.018 ± 0.076

Row | Variant | abundance fitness
97 | V25D | -0.05 ± 0.1
98 | V25E | 0.078 ± 0.06
99 | V25G | -0.119 ± 0.038
100 | V25A | 0.028 ± 0.05
101 | L46T | -0.143 ± 0.085
102 | R30W | -0.328 ± 0.076
103 | R30N | -0.134 ± 0.071
104 | R30S | -0.139 ± 0.062
105 | R30G | -0.236 ± 0.05
106 | R30I | -0.356 ± 0.2
107 | R30P | -1.1 ± 0.21
108 | R30H | -0.081 ± 0.22
109 | V33Q | 0.033 ± 0.09
110 | V33E | -0.014 ± 0.068
111 | V33R | 0.021 ± 0.038
112 | V33S | -0.03 ± 0.061
113 | V44I | -0.217 ± 0.12
114 | V44K | 0.327 ± 0.12
115 | V44E | -0.058 ± 0.12
116 | V44H | 0.275 ± 0.078
117 | V44L | 0.014 ± 0.051
118 | I28F | -0.738 ± 0.22
119 | S38D | -0.048 ± 0.2
120 | S38W | -0.754 ± 0.21

Row | Variant | abundance fitness
121 | S38A | -0.258 ± 0.081
122 | S38V | -0.351 ± 0.13
123 | S38N | -0.174 ± 0.11
124 | R53K | -0.17 ± 0.08
125 | R53Q | -0.483 ± 0.11
126 | R53A | -0.555 ± 0.078
127 | R53T | -0.682 ± 0.18
128 | R53S | -0.591 ± 0.1
129 | R53P | -0.983 ± 0.21
130 | R53D | -0.613 ± 0.15
131 | L12W | -0.431 ± 0.2
132 | L12G | 0.104 ± 0.082
133 | L12C | 0.3 ± 0.5
134 | L12D | -0.124 ± 0.16
135 | L12I | 0.153 ± 0.32
136 | N62S | -0.081 ± 0.076
137 | N62I | 0.089 ± 0.089
138 | E26L | -0.153 ± 0.053
139 | E26V | -0.233 ± 0.064
140 | E26K | -0.059 ± 0.073
141 | E26W | -0.197 ± 0.054
142 | E26S | -0.071 ± 0.055
143 | G73E | -0.24 ± 0.064
144 | G73W | -0.29 ± 0.05

Row | Variant | abundance fitness
145 | G73A | -0.17 ± 0.038
146 | G73P | -0.205 ± 0.058
147 | S69N | -0.106 ± 0.11
148 | S69K | -0.035 ± 0.099
149 | S69H | 0.342 ± 0.18
150 | S69W | -0.291 ± 0.08
151 | S69I | -0.047 ± 0.078
152 | S69R | -0.006 ± 0.053
153 | F23M | -0.693 ± 0.14
154 | F23E | -0.911 ± 0.35
155 | F23V | -0.144 ± 0.067
156 | F23W | -0.964 ± 0.17
157 | F23K | -0.786 ± 0.18
158 | F23Q | -0.883 ± 0.24
159 | L17H | -0.671 ± 0.4
160 | L17A | -0.607 ± 0.12
161 | L17N | -0.776 ± 0.32
162 | L17Y | -0.462 ± 0.11
163 | R32Y | -0.43 ± 0.15
164 | R32Q | -0.132 ± 0.066
165 | R32N | -0.369 ± 0.17
166 | R32L | -0.095 ± 0.056
167 | R32M | -0.35 ± 0.13
